The values that follow come from patent US20230374526A1, “FORSKOLIN-INDUCIBLE PROMOTERS AND HYPOXIA-INDUCIBLE PROMOTERS” (ASKLEPIOS BIOPHARMACEUTICAL, INC., priority 2020, published 2023).

Data set [1] concerns HEK293-T cells. The experiment in a line: Luciferase expression from hypoxia-inducible promoter, normoxia vs 24 h hypoxia. The class given is cell-based, human. The method, then: HEK293-T are seeded at a density of 20%. Once they reached a confluence between 60 and 80%, the media is changed with DMEM (#21885-025—Thermo Scientific) supplemented with 10% FBS (Gibco, 26140). After 3 hours, the cells were transfected by a transfection mix. The transfection mix is prepared by adding DNA (2 μg per 6 well plate) and PEI 25 kDA (#23966-1—Polyscience) in a ratio of 1:3 in sterile DPBS (#14190169—ThermoFisher Scientific). After mixing, the transfection mix is incubated at room temperature for 30 minutes and then added directly to the cells. After 16 to 18 h post transfection, the media is changed to DMEM+2% FBS. […]
After transfection the cells were incubated for 24 hrs in normoxic conditions (20% oxygen). Induction of the promoters was assessed by using luciferase activity after 24 hrs in normoxia or hypoxia (5% oxygen, 10% carbon dioxide and 85% nitrogen). […]
Luciferase activity was measured using LARII (Dual Luciferase Reporter 1000 assay system, Promega, E1980).
Media was removed from the cells at the respective time point (0, 3, 5, 24 hrs after induction). […] 10 μl of supernatant was pipetted into white 96-well plate and luminescence measured by addition of 50 μl of LARII substrate.
β-galactosidase activity was measured as per manufacturer's instructions (Mammalian βGalactosidase Assay Kit, 75707/75710, Thermo Scientific) using 25 μl of lysate. […]

Data set [2] has as its system CHO-GS cells. Description: Luciferase expression from hypoxia-inducible promoter, transient transfection, normoxia vs 24 h hypoxia. It is filed as cell-based, chinese hamster. The following applies: CHO_GS suspension cell line. As to the method: 40 ml of cells were grown in a 250 ml vented Erlenmeyer flask (Sigma-Aldrich CLS431144) at 37° C., 20% O2, 8% CO2 with agitation at 100 rpm. Cells were seeded as at 300,000 cells/ml.
One day before transfection, the cells were counted using a haemocytometer and split to 500,000 cells/ml.
On the day of transfection, the cells are seeded to 1,000,000 cells/ml in 500 μl of appropriate medium (Thermofisher, CD-CHO 10743029) in a 24 well plate. 0.625 μg of DNA per well was then added to 10 μl of OptiMem medium (Thermofisher; 11058021) and incubated for 5 minutes at room temperature.
Concurrently, 0.625 μl of Freestyle Max reagent (Thermofisher, 16447100) was made up to 10 μl by addition of OptiMem and incubated for 5 minutes at room temperature. After this incubation, both mixes were added to the same tube and incubated at room temperature for 25-30 minutes. The DNA/Max reagent mix (20 μl/well) was then added directly to the cells and the cells incubated at 37 C, 8% CO2 with agitation at 100 rpm. […]
After transfection the cells were incubated for 24 hrs in normoxic conditions (20% oxygen). Induction of the promoters was assessed by using luciferase activity after 24 hrs in normoxia or hypoxia (5% oxygen, 10% carbon dioxide and 85% nitrogen). […] Luciferase activity was measured as described above.

Data set [3] relates to CHO-GSK1SV cell line. Description: SEAP expression from hypoxia-inducible promoter in stably integrated cell line, normoxia vs 24 h hypoxia. The class given is cell-based, chinese hamster. To be noted: normalised to cell number. As to the method: Cell suspensions of 6×10^5 cells per mL are incubated on an orbital shaker set at 8% CO2, 20% O2, 37° C., 85% relative humidity and 140 rpm overnight. 2.86×10^7 cells were centrifuged at 200 g for 3 minutes. Media is then aspirated and cell pellet resuspended in 2 mL fresh CD-CHO media to obtain a concentration of 1.43×10^7 cells per mL. 700 μL of cell suspension was added to each of two electroporation cuvettes each containing […] of linearised DNA in 100 μL of sterile TE buffer (Thermofisher, 12090015). Each cuvette was electroporated, delivering a single pulse of 300V, […] with resistance to infinity. Immediately after delivery of pulse electroplated cells were transferred to Erlenmeyer 125 mL flask containing 20 mL of CD-CHO media pre-warmed to 37° C. […] Cells are transferred to fresh CD-CHO media 24 hours after transfection and cell cultures monitored and given fresh CD-CHO media every 2-4 days. […]
Stably transfected CHO-GS cells were seeded at 500,000 cells/ml and allowed to grow for 24 hrs, at this point the cells were counted and placed under hypoxic conditions as previously described. After 24 hrs, the cell numbers and the expression of SEAP was measured.
SEAP Reporter Gene Assay, chemiluminescent (Roche, CAT #11 779 842 001) was used to measured SEAP activity as per manufacturers protocol. […] The signal is then read at 477 nm and compared to a calibration curve. […]

B1: RTV-015: hypoxia-inducible promoter, SEQ ID NO: 129; 5 HRE1 elements spaced by 40 bp spacers, synthetic minimal promoter MP1 (nucleic acid)
DNA: ACGTGCGATGATGCGTAGCTAGTAGTGATGATGCGTAGCTAGTAGTACGTGCGATGATGCGTAGCTAGTAGTGATGATGCGTAGCTAGTAGTACGTGCGATGATGCGTAGCTAGTAGTGATGATGCGTAGCTAGTAGTACGTGCGATGATGCGTAGCTAGTAGTGATGATGCGTAGCTAGTAGTACGTGCTTGGTACCATCCGGGCCGGCCGCTTAAGCGACGCCTATAAAAAATAGGTTGCATGCTAGGCCTAGCGCTGCCAGTCCATCTTCGCTAGCCTGTGCTGCGTCAGTCCAGCGCTGCGCTGCGTAACGGCCGCC
modifications: Synp-RTV-015
notes: 5 HRE1 elements spaced by 40 bp spacers, synthetic minimal promoter MP1
For B1, the “Luciferase expression after 24 hours in hypoxia (vs normoxia)” value in data set [1] (5% oxygen) and in data set [2] (5% oxygen) was “induced” throughout. Also, the “Luciferase activity in normoxia” value in data set [1] (20% oxygen) and in data set [2] (20% oxygen) was “almost no luciferase activity” each time. In addition, the “SEAP activity in normoxia” value in data set [3] is reported as “almost no SEAP activity”. Moreover, the “SEAP expression after 24 hours in hypoxia (vs normoxia)” value in data set [3] is “induced”.
